{"source": "patent US20220380430A1", "about": "(WORCESTER POLYTECHNIC INSTITUTE, published 2022)", "note": "No end group written: not given here.", "data": [{"target": "NPR-10B (C. elegans)", "experiment": "cell-based or functional assay", "units": {"EC50 of receptor activation (aequorin calcium luminescence, transfected CHO-K1/Galpha16 cells)": "nM"}, "values": [{"binder": "ASEDALFGTMRF-NH2", "note": "[FLP-3-5 (ASEDALFGTMRFamide)]", "EC50 of receptor activation (aequorin calcium luminescence, transfected CHO-K1/Galpha16 cells)": 1100}, {"binder": "NPENDTPFGTMRF-NH2", "note": "[FLP-3-9 (NPENDTPFGTMRFamide)]", "EC50 of receptor activation (aequorin calcium luminescence, transfected CHO-K1/Galpha16 cells)": 760}, {"binder": "TPLGTMRF-NH2", "note": "[FLP-3-2 (TPLGTMRFamide)]", "EC50 of receptor activation (aequorin calcium luminescence, transfected CHO-K1/Galpha16 cells)": 366}, {"binder": "SAEPFGTMRF-NH2", "note": "[FLP-3-7 (SAEPFGTMRFamide)]", "EC50 of receptor activation (aequorin calcium luminescence, transfected CHO-K1/Galpha16 cells)": 439}, {"binder": "NPLGTMRF-NH2", "note": "[FLP-3-4 (NPLGTMRFamide)]", "EC50 of receptor activation (aequorin calcium luminescence, transfected CHO-K1/Galpha16 cells)": 427}, {"binder": "EAEEPLGTMRF-NH2", "note": "[FLP-3-3 (EAEEPLGTMRFamide)]", "EC50 of receptor activation (aequorin calcium luminescence, transfected CHO-K1/Galpha16 cells)": 867}, {"binder": "SPLGTMRF-NH2", "note": "[FLP-3-1 (SPLGTMRFamide)]", "EC50 of receptor activation (aequorin calcium luminescence, transfected CHO-K1/Galpha16 cells)": 262}]}, {"target": "FRPR-16 (C. elegans)", "experiment": "cell-based or functional assay", "units": {"EC50 of receptor activation (aequorin calcium luminescence, transfected CHO-K1/Galpha16 cells)": "nM"}, "values": [{"binder": "ASEDALFGTMRF-NH2", "note": "[FLP-3-5 (ASEDALFGTMRFamide)]", "EC50 of receptor activation (aequorin calcium luminescence, transfected CHO-K1/Galpha16 cells)": 72.1}, {"binder": "NPENDTPFGTMRF-NH2", "note": "[FLP-3-9 (NPENDTPFGTMRFamide)]", "EC50 of receptor activation (aequorin calcium luminescence, transfected CHO-K1/Galpha16 cells)": 88.3}, {"binder": "TPLGTMRF-NH2", "note": "[FLP-3-2 (TPLGTMRFamide)]", "EC50 of receptor activation (aequorin calcium luminescence, transfected CHO-K1/Galpha16 cells)": 31.7}, {"binder": "SADDSAPFGTMRF-NH2", "note": "[FLP-3-8 (SADDSAPFGTMRFamide)]", "EC50 of receptor activation (aequorin calcium luminescence, transfected CHO-K1/Galpha16 cells)": 1600}, {"binder": "SAEPFGTMRF-NH2", "note": "[FLP-3-7 (SAEPFGTMRFamide)]", "EC50 of receptor activation (aequorin calcium luminescence, transfected CHO-K1/Galpha16 cells)": 39.5}, {"binder": "NPLGTMRF-NH2", "note": "[FLP-3-4 (NPLGTMRFamide)]", "EC50 of receptor activation (aequorin calcium luminescence, transfected CHO-K1/Galpha16 cells)": 10.7}, {"binder": "EAEEPLGTMRF-NH2", "note": "[FLP-3-3 (EAEEPLGTMRFamide)]", "EC50 of receptor activation (aequorin calcium luminescence, transfected CHO-K1/Galpha16 cells)": 288}, {"binder": "SPLGTMRF-NH2", "note": "[FLP-3-1 (SPLGTMRFamide)]", "EC50 of receptor activation (aequorin calcium luminescence, transfected CHO-K1/Galpha16 cells)": 7.4}]}]}
